Molecular target: T1, β2 microglobulin (human, UniProt P61769 21-119)
T1 construct: β2M alone, as a denatured band on a Western blot; also called 12 kD molecule
Assay: Western blot

T1 sequence (P61769 21-119 limits assumed): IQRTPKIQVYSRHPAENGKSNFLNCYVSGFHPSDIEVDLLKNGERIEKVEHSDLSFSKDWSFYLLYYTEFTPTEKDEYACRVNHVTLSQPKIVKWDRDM

B1: 2D7 antibody (antibody, V domains shown)
VH: QVQLQQSGPELVKPGASVKMSCKASGYTFTDYFIHWVKQRPGQGLEWIGWIFPGDDTTDYNEKFRGKTTLTADKSSSTAYILLSSLTSEDSAMYFCVRSDDFDYWGQGTTLTVSS
VL: QIVLTQSPAIMSASPGEKVTITCSASSSVSYMHWFQQKPGTFPKLWIYSTSNLASGVPTRFSGSGSGTSYSLTISRMEAEDAATYYCQQRTSYPPTFGSGTKLEIK
notes: CDR1 starts at 50 and 46, so these ranges probably include the leader, but no cleavage site is stated
binding result: no binding
